Experimental data from patent US20230301998A1, “METHODS AND COMPOSITIONS FOR INDUCTION OF ANTITUMOR IMMUNITY” (Sanford Burnham Prebys Medical Discovery Institute, priority 2020, published 2023).

Tested on: Nlrc5 and Nlrc5 target genes
Assay: Expression of antigen presentation genes / surface MHCI in B16 cells
Assay type: cell-based, mouse
Conditions: B16 cells stimulated 24 hr (FIGS. 13E-G)

B1: interferon-gamma: interferon gamma (R&D Systems) used to stimulate cells (protein, UniProt P01579 24-161, looked up)
Interferon gamma: QDPYVKEAENLKKYFNAGHSDVADNGTLFLGILKNWKEESDRKIMQSQIVSFYFKLFKNFKDDQSIQKSVETIKEDMNVKFFNSNKKKRDDFEKLTNYSVTDLNVQRKAIHELIQVMAELSPAAKTGKRKRSQMLFRG
With B1 the “expression of PSMB9 and surface expression of MHCI (H-2Kb)” value was “increased”.
